Data taken from patent US20260232732A1 (FUNDACI INSTITUT DE RECERCA CONTRA LA LEUC MIA JOSEP …, published 2026).
Where no end group is shown, it is not given here. The star is where a group is joined. Biotin = O=C1N[C@H]2[C@H](CS[C@H]2CCCCC(=O)*)N1

T1: biotin-peptide MTPTDFTSPI (human, also: prints MTPTDFTSP, without I10)
T1 peptide: Biotin-MTPTDFTSPI

T2: biotin-peptide TDFTSPIPNM (human)
T2 peptide: Biotin-TDFTSPIPNM

T3: biotin-peptide DYGSESTSSM (human)
T3 peptide: Biotin-DYGSESTSSM

T4: biotin-peptide SESTSSMEDY (human)
T4 peptide: Biotin-SESTSSMEDY

T5: biotin-peptide SSMEDYVNFN (human)
T5 peptide: Biotin-SSMEDYVNFN

T6: biotin-peptide SMEDYVNFNF (human)
T6 peptide: Biotin-SMEDYVNFNF

T7: biotin-peptide YVNFNFTDFY (human)
T7 peptide: Biotin-YVNFNFTDFY

T8: biotin-peptide YCEKNNVRQF (human)
T8 peptide: Biotin-YCEKNNVRQF

T9: Pep1-48, N-terminal domain 1 of CCR9, amino acids 1 to 48 (human)
T9 construct: Chemically synthesized (Genscript), purity >75%; also called CCR9 N-terminal 1-48 peptide
T9 peptide: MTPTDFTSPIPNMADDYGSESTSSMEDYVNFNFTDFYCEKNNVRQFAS

T10: biotin-peptide TSPIPNMADD (human)
T10 peptide: Biotin-TSPIPNMADD

T11: biotin-peptide IPNMADDYGS (human)
T11 peptide: Biotin-IPNMADDYGS

T12: biotin-peptide MADDYGSEST (human)
T12 peptide: Biotin-MADDYGSEST

T13: biotin-peptide TSSMEDYVNF (human)
T13 peptide: Biotin-TSSMEDYVNF

T14: biotin-peptide MEDYVNFNFT (human)
T14 peptide: Biotin-MEDYVNFNFT

T15: biotin-peptide FNFTDFYCEK (human)
T15 peptide: Biotin-FNFTDFYCEK

T16: biotin-peptide TDFYCEKNNV (human)
T16 peptide: Biotin-TDFYCEKNNV

T17: biotin-peptide KNNVRQFAS (human)
T17 peptide: Biotin-KNNVRQFAS

B1: Comparative antibody 3 (Comp-3) scFv, SR_92R (Somovilla-Crespo et al. 2018), His-tagged (scFv)
scFv: EVKLEESGGGLVQPGGSMKLSCVASGFTFNKFWMNWVRQSPEKGLEWVAEIRLKSNNYATHYAESVKGRFTISRDDSKSSVYLQMNNLRAEDTGIYYCASDGWFAYWGQGTLVTVSAGGGGSGGGGSGGGGSGGGGSDVVMTQTPLSLPVSLGDQASISCRSSQSLVHSNGNTYLNWCLQRPGQSPKSLIYKVSNRFSGVPDRFSGSGSGTDFTLKISRVEAEDLGVYFCSQSTHFPRTFGGGTKLEIKRHHHHHH
B2: CCR9_HUM2 scFv (humanized anti-CCR9 scFv, SEQ ID NO: 17 with C-terminal 6xHis tag) (scFv)
scFv: QVQLVQSGAEVKKPGASVKVSCTASGYSFTDYIIYWVKQAHGQSLEWMGYIDPNNYNTRYSQKFQGKVTITVDKSSTSAYMELNSLTSDDTAVYYCARDVYWGQGTTVTVSSGGGGSGGGGSGGGGSGGGGSDVVMTQTPLSLSVTPGQPASISCRSSQSLVHSNGKTYLQWYLQKPGQSPKLLIYKVSNRFSGVPDRFSGSGSGTDFTLKISRVEAEDVGVYFCAQSTHVWTFGGGTKVEIKRAHHHHHH

Biological target: T1, biotin-peptide MTPTDFTSPI
Assay: ELISA biotin-peptide; scFv 10 ug/mL; repI
Method: (§1) The peptides were synthesized naked or with a N-terminal Biotin modification with a purity of >98%. All four scFvs were verified by ELISA that can be detected with anti-His antibodies. ELISA was performed for scFv-peptide binding validation. Briefly, naked peptides were coated (50 μg/mL) in 0.58M carbonate-bicarbonate buffer pH9.5, 100 μL/well, 4° C. O/N. Then after blocking (3% BSA-PBS, 300 μL/well 37° C. 1.5 h) and washing (PBS+Tween-20 0.05% v/v (0.05% PBST), wells were incubated with each purified scFv antibody at concentration of 1 μg/mL in PBS at 37° C. 1 h. After washing (0.05% PBST), wells were incubated with secondary antibodies (goat anti-His IgG-HRP) in PBS, 37° C., 30 min. After washing, and incubation with TMB substrate, reactions were stopped with 2M HCl and reading was quantified at OD450.
(§2) Then a library of overlapping peptides were designed and constructed separately to produce 16 different peptides, covering full antigen sequence of total 48 aa. Peptide size was 10aa, with 7aa overlapping and ELISA screening of scFv against each peptide was performed in duplicate. Screening was performed using naked peptides in a standard plate or biotinylated peptides using avidin-plates. The list of overlapping peptides was as follows:
(§3) ELISA with biotin-conjugated peptides (5 μg/mL) was performed very similar to described above with minor modifications.

Binder	OD450
B1	0.1 OD
B2	0.09 OD

Biological target: T2, biotin-peptide TDFTSPIPNM
Assay: ELISA biotin-peptide; scFv 10 ug/mL; repI
Method: as §1, §2, §3

Binder	OD450
B1	0.11 OD
B2	0.12 OD

Biological target: T3, biotin-peptide DYGSESTSSM
Assay: ELISA biotin-peptide; scFv 10 ug/mL; repI
Method: as §1, §2, §3

Binder	OD450
B1	0.12 OD
B2	0.09 OD

Biological target: T4, biotin-peptide SESTSSMEDY
Assay: ELISA biotin-peptide; scFv 10 ug/mL; repI
Method: as §1, §2, §3

Binder	OD450
B1	0.15 OD
B2	0.08 OD

Biological target: T5, biotin-peptide SSMEDYVNFN
Assay: ELISA biotin-peptide; scFv 10 ug/mL; repI
Method: as §1, §2, §3

Binder	OD450
B1	0.15 OD
B2	2.45 OD

Biological target: T6, biotin-peptide SMEDYVNFNF
Assay: ELISA biotin-peptide; scFv 10 ug/mL; repI
Method: as §1, §2, §3

Binder	OD450
B1	0.1 OD
B2	2.48 OD

Biological target: T7, biotin-peptide YVNFNFTDFY
Assay: ELISA biotin-peptide; scFv 10 ug/mL; repI
Method: as §1, §2, §3

Binder	OD450
B1	0.1 OD
B2	0.17 OD

Biological target: T8, biotin-peptide YCEKNNVRQF
Assay: ELISA biotin-peptide; scFv 10 ug/mL; repI
Method: as §1, §2, §3

Binder	OD450
B1	0.11 OD
B2	0.07 OD

Biological target: T9, Pep1-48, N-terminal domain 1 of CCR9, …
Assay: BLI, scFv on NTA biosensor, 1:1 global fit
Method: The affinity between the CCR9-N-terminal domain 1 of CCR9 and the different scFvs was determined by Bio-Layer Interferometry (BLI), a technique that allows quantitative and qualitative measurement of biomolecular interactions in real-time. Briefly, scFv were immobilized onto NTA Biosensor (Sartorius) and quantification was performed in an Octet RED384 (Sartorius). scFv were dissolved in PBS (150 mM NaCl, 38 mM Na2HPO4, 12 mM NaH2PO4, pH 7.2) and a buffer containing 0.03% Tween-20 in PBS, pH 7.2 was used for baseline steps.

Binder	Kd	koff	kon
B1	33.1 nM	0.012 s⁻¹	364000 M⁻¹ s⁻¹
B2	6.25 nM	0.00168 s⁻¹	268000 M⁻¹ s⁻¹

Biological target: T2, biotin-peptide TDFTSPIPNM
Assay: ELISA biotin-peptide; scFv 10 ug/mL; repII
Method: as §1, §3

Binder	OD450
B1	0.11 OD
B2	0.09 OD

Biological target: T10, biotin-peptide TSPIPNMADD
Assay: ELISA biotin-peptide; scFv 10 ug/mL; repII
Method: as §1, §3

Binder	OD450
B1	1.69 OD
B2	0.06 OD

Biological target: T11, biotin-peptide IPNMADDYGS
Assay: ELISA biotin-peptide; scFv 10 ug/mL; repII
Method: as §1, §3

Binder	OD450
B1	1.47 OD
B2	0.1 OD

Biological target: T12, biotin-peptide MADDYGSEST
Assay: ELISA biotin-peptide; scFv 10 ug/mL; repII
Method: as §1, §3

Binder	OD450
B1	0.13 OD
B2	0.16 OD

Biological target: T3, biotin-peptide DYGSESTSSM
Assay: ELISA biotin-peptide; scFv 10 ug/mL; repII
Method: as §1, §3

Binder	OD450
B1	0.1 OD
B2	0.07 OD

Biological target: T4, biotin-peptide SESTSSMEDY
Assay: ELISA biotin-peptide; scFv 10 ug/mL; repII
Method: as §1, §3

Binder	OD450
B1	0.12 OD
B2	0.09 OD

Biological target: T13, biotin-peptide TSSMEDYVNF
Assay: ELISA biotin-peptide; scFv 10 ug/mL; repII
Method: as §1, §3

Binder	OD450
B1	0.12 OD
B2	1.92 OD

Biological target: T5, biotin-peptide SSMEDYVNFN
Assay: ELISA biotin-peptide; scFv 10 ug/mL; repII
Method: as §1, §3

Binder	OD450
B1	0.12 OD
B2	2.3 OD

Biological target: T6, biotin-peptide SMEDYVNFNF
Assay: ELISA biotin-peptide; scFv 10 ug/mL; repII
Method: as §1, §3

Binder	OD450
B1	0.12 OD
B2	2.38 OD

Biological target: T14, biotin-peptide MEDYVNFNFT
Assay: ELISA biotin-peptide; scFv 10 ug/mL; repII
Method: as §1, §3

Binder	OD450
B1	0.11 OD
B2	2.32 OD

Biological target: T7, biotin-peptide YVNFNFTDFY
Assay: ELISA biotin-peptide; scFv 10 ug/mL; repII
Method: as §1, §3

Binder	OD450
B1	0.13 OD
B2	0.21 OD

Biological target: T15, biotin-peptide FNFTDFYCEK
Assay: ELISA biotin-peptide; scFv 10 ug/mL; repII
Method: as §1, §3

Binder	OD450
B1	0.07 OD
B2	0.06 OD

Biological target: T16, biotin-peptide TDFYCEKNNV
Assay: ELISA biotin-peptide; scFv 10 ug/mL; repII
Method: as §1, §3

Binder	OD450
B1	0.09 OD
B2	0.06 OD

Biological target: T8, biotin-peptide YCEKNNVRQF
Assay: ELISA biotin-peptide; scFv 10 ug/mL; repII
Method: as §1, §3

Binder	OD450
B1	0.09 OD
B2	0.06 OD

Biological target: T17, biotin-peptide KNNVRQFAS
Assay: ELISA biotin-peptide; scFv 10 ug/mL; repII
Method: as §1, §3

Binder	OD450
B1	0.08 OD
B2	0.09 OD
